T1: Recombinant Sec6 (1–805) (yeast, UniProt P32844 1-805)
T1 sequence: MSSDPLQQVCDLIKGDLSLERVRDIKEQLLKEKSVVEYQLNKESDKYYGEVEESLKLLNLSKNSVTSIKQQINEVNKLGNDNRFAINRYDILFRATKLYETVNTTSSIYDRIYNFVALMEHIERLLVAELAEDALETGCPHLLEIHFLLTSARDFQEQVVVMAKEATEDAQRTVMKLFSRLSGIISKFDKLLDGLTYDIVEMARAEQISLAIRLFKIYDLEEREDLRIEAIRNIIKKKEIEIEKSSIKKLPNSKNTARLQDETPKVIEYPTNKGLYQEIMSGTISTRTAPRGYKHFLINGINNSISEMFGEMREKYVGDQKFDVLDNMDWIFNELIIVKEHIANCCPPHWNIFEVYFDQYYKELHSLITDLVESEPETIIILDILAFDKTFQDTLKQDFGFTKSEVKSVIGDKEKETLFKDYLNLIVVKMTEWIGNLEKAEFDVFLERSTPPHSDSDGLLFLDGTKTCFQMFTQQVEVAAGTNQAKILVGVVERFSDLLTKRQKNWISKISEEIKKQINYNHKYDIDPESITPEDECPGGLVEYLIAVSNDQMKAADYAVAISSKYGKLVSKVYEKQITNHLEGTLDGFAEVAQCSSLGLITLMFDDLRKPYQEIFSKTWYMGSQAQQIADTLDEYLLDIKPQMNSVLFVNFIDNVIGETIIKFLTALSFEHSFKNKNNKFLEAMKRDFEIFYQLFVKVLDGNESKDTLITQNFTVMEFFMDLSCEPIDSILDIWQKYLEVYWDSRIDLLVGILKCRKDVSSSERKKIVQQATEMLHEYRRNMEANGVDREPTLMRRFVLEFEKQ

B1: Sso1, cytoplasmic region (domain or fragment)
chain: MSYNNPYQLETPFEESYELDEGSSAIGAEGHDFVGFMNKISQINRDLDKYDHTINQVDSLHKRLLTEVNEEQASHLRHSLDNFVAQATDLQFKLKNEIKSAQRDGIHDTNKQAQAENSRQRFLKLIQDYRIVDSNYKEENKEQAKRQYMIIQPEATEDEVEAAISDVGGQQIFSQALLNANRRGEAKTALAEVQARHQELLKLEKSMAELTQLFNDMEELVIEQQENVDVIDKNVEDAQLDVEQGVGHTDKAVKSARKARKNKIR
B2: MBP-Sec9CT (domain or fragment)
chain: ARQQQEEDEAVDEIKQEIKFTKQSSVASTRNTLKMAQDAERAGMNTLGMLGHQSEQLNNVEGNLDLMKVQNKVADEKVAELKKLNRSILAVHVSNPFNSKRRRREREEQLKNRKIEEKLMREQTSQQLSQSTQRIEGAMNANNNISEVRERYQRKNVLEKAKRYQFENDEEDDEMELEIDRNLDQIQQVSNRLKKMALTTGKELDSQQKRLNNIEESTDDLDINLHMNTNRLAGIR
B3: Sec9CT (416–651) (domain or fragment)
chain: B2 chain
B4: Sec1-V5-His6 (natural protein)
chain: MSDLIELQRNYLIGVLNQIETKNNLKFLIIDKTVETILSYLFLTPQELLNNVTSVDLIDSPTRKGQSSIEAIYILEPTKYNINCIDADFMVRPPKYRRCHIRFLPGLTNPIFQFFQSKRYIAQNLESFKPIELGFFVKESQFFETLQMEHSLQVFFNNNCKALIPTNVRKIVGSLVSLCVITGEYPIVRYSVSNPVEEEDARNGNAVVNANSLTRSIANAFQIAIDTYARNNPDFPPQNTERPRSILIITDRTLDPFAPILHDFSYQAMAYDLVANVDTQKDIYHYSAENEAGEQEEKVSKLVDLYDPDWIDLKHQHIMDANEYIQGRIKELIAKNPLLVDRSNVKNTTDLLSVVAHLKDFDEERRRLILHKTLVDECLGENAERKLADISAIEQNLSGFGMDFSGEKIKHIIDDLLPALAMKEPTILDKLRYIIAYALFRGGIIELDFIKLLNFIGVTHEHENFQQYLKIFRNYDLIDFKLIKDKPKDKPFQKEWFHDTLVNDPNIYHTSRFVPAVGNILSKVIANPLLLSEQYFPYLKDKPIELLNEEEFQAGLANTSANSSSSLRNPRHKAAWTTKSSNIKKNIPRQRFFYYVIGGISIPEIKAAYDQSNLKNRDIFIGSDEILTPTKFLDEVERLQNPREFFKFKEDQRQQVNPPDFLLREMKPVAQPVSHVHLKSQDNSPKSGTSSPKAAGSLKSEPPEKEKKRSKFSRFLKRKSHHDK

Assays:
Sec1-V5-His6 = biological target: B4; assay: pull-down
Recombinant Sec6 (1–805) [1] = biological target: T1, Recombinant Sec6 (1–805); assay: […]
Recombinant Sec6 (1–805) [2] = biological target: T1, Recombinant Sec6 (1–805); assay: SEC
Recombinant Sec6 (1–805) [3] = biological target: T1, Recombinant Sec6 (1–805); assay: pull-down

Q: B1 was tested. Which Kd (Sec1-V5-His6) did it give?
A: The Kd was greater than 10000 nM.

Q: Does B2 bind (Recombinant Sec6 (1–805) [1])?
A: Result: binds

Q: Does B3 bind (Recombinant Sec6 (1–805) [2])?
A: Result: binds

Q: How did the Kd (Recombinant Sec6 (1–805) [3]) turn out when B4 was run?
A: Its Kd is roughly 1700 nM.

Source: PMC3258177 (Molecular Biology of the Cell, 2012)
